Assays:
[1] = target: ALK5-Flag (transforming growth factor-β receptor 1, TGFBR1) (UniProt P36897)
[2] = target: ALK5-Flag (transforming growth factor-β receptor 1, TGFBR1) (UniProt P36897); remark: listed apart in the source

UniProt P36897, sequence (P36897 34-503): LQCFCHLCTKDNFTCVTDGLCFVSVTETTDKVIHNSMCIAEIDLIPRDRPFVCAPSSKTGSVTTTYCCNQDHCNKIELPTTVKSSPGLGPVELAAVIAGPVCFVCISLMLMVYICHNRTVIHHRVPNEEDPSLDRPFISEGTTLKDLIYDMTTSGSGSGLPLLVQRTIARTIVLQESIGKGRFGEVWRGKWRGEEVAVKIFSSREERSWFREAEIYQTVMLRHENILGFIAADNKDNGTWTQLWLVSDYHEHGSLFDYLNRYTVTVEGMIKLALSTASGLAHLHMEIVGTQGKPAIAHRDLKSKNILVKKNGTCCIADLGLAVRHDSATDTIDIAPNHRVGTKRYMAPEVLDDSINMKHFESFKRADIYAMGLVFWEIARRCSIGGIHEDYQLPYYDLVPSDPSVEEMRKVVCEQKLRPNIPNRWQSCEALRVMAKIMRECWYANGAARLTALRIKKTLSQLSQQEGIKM

## GST-Lum (recombinant GST-lumican fusion protein) (from UniProt P51885 19-338) (natural protein)
[1]
  rate constant 1 of healing of scratched HTCE cells, GST-Lum in basic medium: 5.37 Δ%/h
  rate constant 2 of healing of scratched HTCE cells, GST-Lum in basic medium: 14.8 Δ%/h
[2]
  rate constant 1 of healing of scratched HTCE cells, GST-Lum with the ALK5 inhibitor SB431542 (10 µM); monophasic, no rate constant 2: 1.89 Δ%/h

## GST-LumC50 (GST fusion with the C-terminal 50 amino acids of Lum) (domain or fragment)
[1]
  rate constant 1 of healing of scratched HTCE cells, GST-LumC50 in basic medium: 5.35 Δ%/h
  rate constant 2 of healing of scratched HTCE cells, GST-LumC50 in basic medium: 14 Δ%/h

## LumC13 peptide (the last C-terminal 13 amino acids of Lum)
[1]
  rate constant 1 of healing of scratched HTCE cells, LumC13 peptide: 4.62 Δ%/h
  rate constant 2 of healing of scratched HTCE cells, LumC13 peptide: 13.5 Δ%/h

## LumC13C-A peptide (LumC13 with the cysteine substituted with alanine)
[1]
  rate constant 1 of healing of scratched HTCE cells, LumC13C-A peptide: 5.1 Δ%/h
  rate constant 2 of healing of scratched HTCE cells, LumC13C-A peptide: 13.9 Δ%/h
